Assay results reported in paper PMC7195466, “A common allosteric mechanism regulates homeostatic inactivation of auxin and gibberellin” (Nature Communications, 2020).
Residue numbers refer to the chain shown, from its start. Numbers in names are those of the source.

Columns and labels:
[1] = target: Oryza sativa dioxygenase for auxin oxidation (OsDAO) (rice (Oryza sativa)) (UniProt Q7XKU5)
GC-SIM-MS of GA34 [2] = substrate: C=C1C[C@]23C[C@H]1CC[C@H]2[C@@]12CC[C@H](O)[C@@](C)(C(=O)O1)[C@H]2[C@@H]3C(=O)O; assay: GC-SIM-MS of GA34; format: biochemical, Oryza sativa; details: multimer forms measured separately (monomer, dimer, tetramer); same
From the text: GC-SIM-MS of GA34 on OsGA2ox3 (GA 2-oxidase 3) | The […]/[…]-tetramer affected both the Km and the Vmax values

GC-SIM-MS of GA34 [3] = substrate: C=C1C[C@]23C[C@H]1CC[C@H]2[C@@]12CC[C@H](O)[C@@](C)(C(=O)O1)[C@H]2[C@@H]3C(=O)O; assay: GC-SIM-MS of GA34; format: biochemical, Oryza sativa; details: multimer forms measured separately; Methods print Cys187 instead of C186; same
From the text: GC-SIM-MS of GA34 on OsGA2ox3 (GA 2-oxidase 3) | whereas the […]/[…] monomer affected only the Km

B1: Oryza sativa dioxygenase for auxin oxidation (OsDAO) (enzyme)
chain: MVEIPAIDLRLAGGGGGAEETARLRDACARLGCFRVSGHGVPPGLQAEMKAAVRALFDLPDDAKRRNADIIPGSGYVPPGTANPLYEAFGLCDAAAPADVDAFCARLDAPPHVRETVKAYAERMHSLIVDVAGKVAASLGLHGASFQDWPCQFRMNRYNYTQDSVGSPGVQVHTDSGFLTVLQEDECVGGLEVLDPAAGEFVPVDPLPGSFVVNVGDVGQAWSNGRLHNVKHRVQCVAAVPRVSIAMFLLAPKDDTVSAPGELVDGEHPRRYREFKYDDYRRLRLSTGERAGEALARLAA
Vmax of the dimer against the monomer (forms separated by gel filtration) [1]: 22 fold

B2: OsGA2ox3 (GA 2-oxidase 3) (Oryza sativa Japonica Group; F100A/R97A) (protein)
chain: MVVLAGPPAVDHIPLLRSPDPGDVFSGVPVVDLGSPGAARAVVDACERYGFFKVVNHGVATDTMDKAESEAVRFFSQTQPDKDRSGPAYPFGYGSKAIGANGDMGWLEYLLLALDDASLADACTVPSCAVFRAALNEYISGVRKVAVRVMEAMSEGLGIAQADALSALVTAEGSDQVFRVNHYPPCRALQGLGCSVTGFGEHTDPQLVSVLRSNGTSGLQIALRDGQWVSVPSDRDSFFVNVGDSLQVLTNGRFKSVKHRVVANSLKSRVSFIYFGGPPLAQRIAPLPQLLGEGEQSLYKEFTWDEYKKAAYKSRLGDNRLAQFEKK
notes: full-length coding region in pGEX6P1, GST tag cut off with PreScission protease, E. coli Rosetta (DE3) pLysS; monomer, homotetramer with GA4
Km (GC-SIM-MS of GA34 [2]): 0.52 ± 0.10 (tetramer) μM

B3: OsGA2ox3 (GA 2-oxidase 3) (Oryza sativa Japonica Group; C186A/W106A) (protein)
chain: B2 chain with A97R, A100F, W106A, C186A
notes: as for B2
Km (GC-SIM-MS of GA34 [3]): 5.41 ± 0.96 (monomer) μM
